In this assay the target is CD18-independent counterreceptor for ICAM-R on Jurkat cells. Put plainly: cell adhesion to coated shICAM-R, peptide 1-2 mg/ml.

B1: ICAM-R peptide 271-276 (peptide)
peptide: GERREA
The molecule B1 came in with a % Inhibition CD18-Independent Binding (Jurkat) of 11%.

B2: ICAM-R peptide 72-76 (NGSQI) (peptide)
peptide: NGSQI
B2 gave a % Inhibition CD18-Independent Binding (Jurkat) of 17%.

B3: ICAM-R peptide 230-234 (GDQML) (peptide)
peptide: GDQML
As for B3, the % Inhibition CD18-Independent Binding (Jurkat) was determined as 36%.

B4: ICAM-1 peptide 228-232 (GDQRL) (peptide)
peptide: GDQRL
In turn, B4 came in with a % Inhibition CD18-Independent Binding (Jurkat) of 22%.

B5: ICAM-1 peptide 70-74 (DGQST) (peptide)
peptide: DGQST
Turning to B5, the % Inhibition CD18-Independent Binding (Jurkat) amounted to 9%.

B6: ICAM-R peptide 32-38 (peptide)
peptide: EKIALET
For B6, the % Inhibition CD18-Independent Binding (Jurkat) was found to be 10%.

The record behind these values is patent US20010029293A1.
